This is an account of results in US20250332264A1, “GhR-BINDING PEPTIDE AND COMPOSITION COMPRISING SAME” (priority 2021, published 2025).

Starred links: 1 amine or outer side, 2 acyl side, 3 side chain; linkers in the order of their positions; H or OH if unused. Positions of bridges follow the written chain, without caps; N, C: chain ends. Non-standard residues stand in square brackets, D forms with d. Groups on a side chain read outwards from the residue. No end group written: not given here. *: point of attachment. A4pipaa = 4-amino-1-(carboxymethyl)piperidine-4-carboxylic acid, O=C(C1(N[*:1])CCN(CC(=O)[*:3])CC1)[*:2]; BiPh4pCO = 4-([1,1′-biphenyl]-4-yl)butanoic acid, O=C(CCCc1ccc(-c2ccccc2)cc1)*; Biph4pCO = 4-([1,1′-biphenyl]-4-yl)butanoic acid, O=C(CCCc1ccc(-c2ccccc2)cc1)*; X1 = 4‑(carboxymethyl)piperazine‑1‑carbonyl, O=C(O)CN1CCN(C(=O)*)CC1; Trp(1-CH2CO) = O=C([C@H](Cc1cn(CC(=O)[*:3])c2ccccc12)N[*:1])[*:2]; Trp(5-OMe) = COc1ccc2[nH]cc(C[C@H](N)C(=O)O)c2c1; Butanoyl(4-(4-I-phenyl)) = O=C(CCCc1ccc(I)cc1)*; Trp(5-OH) = N[C@@H](Cc1c[nH]c2ccc(O)cc12)C(=O)O; Phe(4-COOH) = N[C@@H](Cc1ccc(C(=O)O)cc1)C(=O)O; Trp(7-aza) = N[C@@H](Cc1c[nH]c2ncccc12)C(=O)O; Butanoyl(4-(4-MePh)) = Cc1ccc(CCCC(=O)*)cc1; C17 diacid = O=C(O)CCCCCCCCCCCCCCCC(=O)*; C16 diacid = O=C(O)CCCCCCCCCCCCCCC(=O)*; C15 diacid = O=C(O)CCCCCCCCCCCCCC(=O)*; C14 diacid = O=C(O)CCCCCCCCCCCCC(=O)*; Hexanoyl(6-Ph) = O=C(CCCCCc1ccccc1)*; Butanoyl(4-Ph) = O=C(CCCc1ccccc1)*; 4Pal = N[C@@H](Cc1ccncc1)C(=O)O; NMeK = CN[C@@H](CCCCN)C(=O)O; W5H = not defined here; AEEA = NCCOCCOCC(=O)O; Aib = CC(C)(N)C(=O)O

The assay concerns the target Recombinant human GhR-Fc protein (R&D Systems) (human) (UniProt P10912). Kind of assay: SPR, Biacore T200, single-cycle kinetics, GhR-Fc immobilised on CM5.

Sequence of Recombinant human GhR-Fc protein (R&D Systems) (human) (P10912 19-264 limits assumed): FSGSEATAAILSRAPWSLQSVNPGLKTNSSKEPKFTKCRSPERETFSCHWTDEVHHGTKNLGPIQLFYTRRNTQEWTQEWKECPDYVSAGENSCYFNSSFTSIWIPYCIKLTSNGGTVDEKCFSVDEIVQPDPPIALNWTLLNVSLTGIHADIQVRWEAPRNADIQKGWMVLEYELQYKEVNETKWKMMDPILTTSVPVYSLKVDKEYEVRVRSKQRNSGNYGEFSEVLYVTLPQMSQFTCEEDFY

One may read the Kd as the concentration at which binding is half-saturated. As to {CH2CO}-[Phe(4-COOH)]KVVSN[Trp(1-CH2CO)][Phe(4-COOH)]K[Trp(5-OH)][Aib]VCK([Glu-Glu-Hexanoyl(6-Ph)])-NH2 (thioether N-13; lactam 2-7; not fully specified (residue 2)) [GhR_PD_254], the Kd worked out at 1.93 nM. On to {CH2CO}-[Phe(4-COOH)]KVVSN[Trp(1-CH2CO)][Phe(4-COOH)]K[Trp(5-OH)][Aib]VCK([Glu-Glu-C15 diacid])-NH2 (thioether N-13; lactam 2-7; not fully specified (residue 2)) [GhR_PD_269], for which the equilibrium dissociation constant (Kd) stood at 3.1 nM.

Consider {CH2CO}-[Phe(4-COOH)]KVVSN[Trp(1-CH2CO)][Phe(4-COOH)]K[Trp(5-OH)][Aib]VCK([Glu-Glu-Ac])-NH2 (thioether N-13; lactam 2-7; not fully specified (residue 2)) [GhR_PD_267], for which the Kd was found to be 3.51 nM.

For the molecule {CH2CO}-[Phe(4-COOH)]KVVSN[Trp(1-CH2CO)][Phe(4-COOH)]K[Trp(5-OH)][Aib]VCK([AEEA-AEEA-Glu-Glu-C15 diacid])-NH2 (thioether N-13; lactam 2-7; not fully specified (residue 2)) [GhR_PD_272], the Kd stood at 3.7 nM. The same measure for {CH2CO}-[Phe(4-COOH)]KVVSN[Trp(1-CH2CO)][Phe(4-COOH)]K[Trp(5-OH)][Aib]VCK([AEEA-AEEA-Glu-Glu-C17 diacid])-NH2 (thioether N-13; lactam 2-7; not fully specified (residue 2)) [GhR_PD_274]: 3.33 nM. With {CH2CO}-[Phe(4-COOH)]KVVSN[Trp(1-CH2CO)][Phe(4-COOH)]K[Trp(5-OH)][Aib]VCK([Glu-Glu-C17 diacid])-NH2 (thioether N-13; lactam 2-7; not fully specified (residue 2)) [GhR_PD_270], the Kd is 2.53 nM. The value for {CH2CO}-[Phe(4-COOH)]KVVSN[Trp(1-CH2CO)][Phe(4-COOH)]K[Trp(5-OH)][Aib]VCK([Glu-Glu-Biph4pCO])-NH2 (thioether N-13; lactam 2-7; not fully specified (residue 2)) [GhR_PD_253] was 1.61 nM.

B1: GhR_PD_204 (peptide)
peptide: {CH2CO}-[4Pal]KVVSN[Trp(7-aza)][Phe(4-COOH)]K[Trp(5-OH)][Aib]VC-NH2
modifications: thioether N-13; not fully specified (residue 2); also: albumin binder E-4IPhpCO, attachment site not given here
Turning to B1, the Kd is 9.43 nM.

B2: GhR_PD_223 (peptide)
peptide: {CH2CO}-[Phe(4-COOH)]KVVSN[Trp(5-OMe)][Phe(4-COOH)]K(X1)[Trp(5-OH)][Aib]VC-NH2
modifications: thioether N-13; not fully specified (residue 2); also: albumin binder E-4IPhpCO, attachment site not given here
Regarding B2, the Kd came to 5.47 nM. As for {CH2CO}-[Phe(4-COOH)]KVVSN[Trp(1-CH2CO)][Phe(4-COOH)]K[Trp(5-OH)][Aib]VCK([Glu-Glu-Butanoyl(4-(4-MePh))])-NH2 (thioether N-13; lactam 2-7; not fully specified (residue 2)) [GhR_PD_245], the dissociation constant Kd was determined as 1.95 nM.

Take {CH2CO}-[Phe(4-COOH)][NMeK]([Glu-BiPh4pCO])VVSN[Trp(5-OMe)][Phe(4-COOH)]K[Trp(5-OH)][4‑amino‑1‑(carboxymethyl)piperidine‑4‑carboxylic acid]VC-NH2 (thioether N-13) [GhR_PD_255]: the Kd is 5.81 nM.

B3: GhR_PD_233 (peptide)
peptide: {CH2CO}-[F4COO][MeK]VVSN[W1aa][F4COO]K[W5H][Aib]VCK
modifications: thioether N-13; lactam 2-7; reading uncertain; also: albumin binder E-E-cC14COO on the side-chain amino group of the linker lysine, which lysine is not given here
As for B3, the Kd was determined as 2.85 nM. The value for {CH2CO}-[Phe(4-COOH)]KVVSN[Trp(1-CH2CO)][Phe(4-COOH)]K[Trp(5-OH)][Aib]VCK([AEEA-AEEA-Glu-Glu-C14 diacid])-NH2 (thioether N-13; lactam 2-7; not fully specified (residue 2)) [GhR_PD_271] was 3.88 nM; that for {CH2CO}-[Phe(4-COOH)]KVVSN[Trp(1-CH2CO)][Phe(4-COOH)]K[Trp(5-OH)][Aib]VCK([Glu-Glu-Butanoyl(4-Ph)])-NH2 (thioether N-13; lactam 2-7; not fully specified (residue 2)) [GhR_PD_218] was 2.03 nM.

As to {CH2CO}-[Phe(4-COOH)]KVVSN[Trp(1-CH2CO)][Phe(4-COOH)]K[Trp(5-OH)][Aib]VCGP[dS][dS][dS]K([Glu-Glu-Butanoyl(4-(4-I-phenyl))])-NH2 (thioether N-13; lactam 2-7; not fully specified (residue 2)) [GhR_PD_248], the Kd was found to be 1.88 nM. In the case of {CH2CO}-[Phe(4-COOH)]KVVSN[Trp(1-CH2CO)][Phe(4-COOH)]K[Trp(5-OH)][Aib]VCK([AEEA-AEEA-Glu-Glu-C16 diacid])-NH2 (thioether N-13; lactam 2-7; not fully specified (residue 2)) [GhR_PD_273], the Kd amounted to 3.61 nM.

For {CH2CO}-[Phe(4-COOH)]KVVSN[Trp(1-CH2CO)][Phe(4-COOH)]K[Trp(5-OH)][Aib]VCK([Glu-Butanoyl(4-(4-I-phenyl))])-NH2 (thioether N-13; lactam 2-7; not fully specified (residue 2)) [GhR_PD_247], the equilibrium dissociation constant (Kd) stood at 1.36 nM.

B4: GhR_PD_224 (peptide)
peptide: {CH2CO}-[Phe(4-COOH)]KVVSN[Trp(5-OMe)][Phe(4-COOH)]K[Trp(5-OH)][A4pipaa]VC-NH2
modifications: thioether N-13; not fully specified (residue 2); also: albumin binder E-4IPhpCO, attachment site not given here
On to B4, for which the Kd amounted to 10.8 nM.

B5: GhR_PD_202 (peptide)
peptide: {CH2CO}-[4Pal]KVVSN[Trp(5-OMe)][Phe(4-COOH)]K[Trp(5-OH)][Aib]VC-NH2
modifications: thioether N-13; not fully specified (residue 2); also: albumin binder E-4IPhpCO, attachment site not given here
Take B5: the Kd came to 2.77 nM.
